Assay results taken from the supplement of paper PMC9732359.
± gives the uncertainty stated by the source.

Assay: protein stability index of a GFP-peptide fusion (yeast GPS) (PSI 1-4); higher = more stable; sorted into four equal gates, so the index is relative within each strain
How it was run: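 For each peptide, the protein stability index sums the read frequency in every gate after multiplying it by the gate number. Read frequencies came from plasmids that were PCR-amplified from each gate and Illumina-sequenced, with reads assigned to strains by barcodes. The gates were four equal bins of GFP/Cherry fluorescence ratio applied to mid-log yeast in leucine-free medium carrying a pooled library of tiled 17-residue yeast protein peptides fused downstream of GFP on a Cherry-expressing plasmid.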

Row | Sequence | protein stability index (doa10∆) | protein stability index (pdr5∆) | protein stability index (san1∆) | protein stability index (ubr1∆)
1 | VSVLLISKDCSAFACKT [BRR2] | 1.96 ± 0.052 | 2.27 ± 0.042 | 2.21 ± 0.064 | 2.17 ± 0.049
2 | KLVTYIVKFKQKEEGRS [YLR335W/NUP2] | 3.1 ± 0.06 | 3.1 ± 0.067 | 3.33 ± 0.044 | 3.34 ± 0.051
3 | ASPSAHTSSSDGNNEIF [RPN4] | 2.36 ± 0.063 | 2.73 ± 0.046 | 2.61 ± 0.067 | 3 ± 0.063
4 | VSSSKNKKSEENEMIKP [SWP82] | 2.72 ± 0.25 | 3.34 ± 0.14 | 3.18 ± 0.14 | 3.49 ± 0.28
5 | STLSNWSSEFAKWAPTL [SNF2] | 2.9 ± 0.054 | 2.45 ± 0.06 | 2.85 ± 0.055 | 2.26 ± 0.047
6 | ASVGDILKTLERSICAL [YML031W/NDC1] | 2.12 ± 0.066 | 2.94 ± 0.088 | 2.79 ± 0.086 | 2.64 ± 0.058
7 | KKHTKKFKRHHSDRYHR [RPL32] | 2.88 ± 0.038 | 2.99 ± 0.034 | 2.87 ± 0.029 | 2.971 ± 0.025
8 | KKNNAASELANPYSSYV [YAR002W/NUP60] | 2.99 ± 0.062 | 3.02 ± 0.047 | 2.98 ± 0.047 | 2.83 ± 0.054
9 | HKKDRLQYLPLYAVSTF [SIR4] | 1.59 ± 0.035 | 1.66 ± 0.035 | 1.35 ± 0.054 | 1.89 ± 0.037
10 | GDKEATAPLIQRKNKKN [RPN8] | 3.22 ± 0.15 | 3.42 ± 0.12 | 3.18 ± 0.088 | 3.15 ± 0.18
11 | LGRVRNHFIFNVESAGA [RPC40] | 1.38 ± 0.062 | 1.5 ± 0.069 | 1.62 ± 0.09 | 1.27 ± 0.065
12 | QQQQQQQQQQQQQGQIP [SNF5] | 2.729 ± 0.023 | 2.79 ± 0.023 | 2.75 ± 0.022 | 2.826 ± 0.02
13 | QTRKEYNTSILEFRWLT [SIN4] | 1.74 ± 0.073 | 1.74 ± 0.059 | 1.83 ± 0.093 | 2.42 ± 0.098
14 | VDASPNDVTRRTVKNIL [CSL4] | 3.19 ± 0.085 | 3.18 ± 0.085 | 3.1 ± 0.078 | 3.3 ± 0.063
15 | ADDHASVQINVAKVDEE [RPS21A] | 3.26 ± 0.062 | 3.08 ± 0.072 | 3.13 ± 0.045 | 3.26 ± 0.04
16 | SRHFASYANLPGTITHG [FAS1] | 2.75 ± 0.059 | 2.82 ± 0.055 | 2.57 ± 0.055 | 2.71 ± 0.039
17 | LIELLTQMDGFDQSTNV [RPT3] | 2.33 ± 0.088 | 2.19 ± 0.075 | 1.56 ± 0.15 | 2.05 ± 0.08
18 | TRYELYIKNILEAPVKS [YLR335W/NUP2] | 1.67 ± 0.045 | 2.1 ± 0.054 | 1.66 ± 0.087 | 1.56 ± 0.057
19 | LIRLQMEKLDAKLNHLK [SWI3] | 3.06 ± 0.17 | 3.04 ± 0.15 | 2.85 ± 0.15 | 3.1 ± 0.2
20 | QALIHGLNRHYYSLNID [RPN11] | 1.98 ± 0.15 | 2.4 ± 0.1 | 2.44 ± 0.068 | 2.42 ± 0.068
21 | VTTCVYLACKVEECPQY [SSN8] | 1.93 ± 0.059 | 2.05 ± 0.075 | 2.58 ± 0.11 | 1.96 ± 0.073
22 | VSKEQFLKDADVECIKA [YJL039C/NUP192] | 1.45 ± 0.043 | 1.61 ± 0.059 | 2.17 ± 0.079 | 1.89 ± 0.042
23 | PEFAGYSKAAEPHAVSL [ASC1] | 2.51 ± 0.073 | 2.44 ± 0.063 | 2.17 ± 0.068 | 2.21 ± 0.047
24 | IAGVITRSKRLSQVYPT [CSN12] | 2.91 ± 0.18 | 2.84 ± 0.11 | 3.11 ± 0.12 | 3.01 ± 0.071
25 | GVLKPDITFFGEALPNK [SIR2] | 3.34 ± 0.08 | 3.19 ± 0.083 | 3.16 ± 0.091 | 3.35 ± 0.085
